The results in this text go back to article doi:10.1101/2023.07.12.548734.

This test concerns the target CrtSPARTA (heterodimeric TIR-APAZ/short pAgo complex from Crenotalea thermophila) (Crenotalea thermophila). The test is described as follows: cryo-EM structure.

The substance “CrtSPARTA (heterodimeric TIR-APAZ/short pAgo complex from Crenotalea thermophila)” registered a stoichiometry N (heterodimers in the assembly (octamer)) of 4 and a stoichiometry N (heterodimers in the assembly (tetramer)) of 2.
